Changes are numbered by the printed parent chain. Numbers in names are those of the source.
B1: Ic_S4_P4E.1_K4.1_C4.1_H4.1_A4.1_[T5C]_[A6T]_[T7A]_F4.1_[T8C]_T4.1 (ssRNA)
RNA: UUUGACAACUGAUCGUUCUUUCUUGUACUACAUUCUUUCUCGAUCAGUUGUCUUU
B2: Ic_S4_P4E.1_K4.1_C4.1_H4.1_A4.1_[T5C]_[T7C]_F4.1_[T8A]_T4.1 (ssRNA)
RNA: B1 RNA with U29A, A30C, C31A
B3: Ic_S4_P4E.1_K4.1_C4.1_H4.1_A4.1_[T5C]_F4.1_[T8G]_[A9C]_T4.1 (ssRNA)
RNA: B1 RNA with U29A, A30U, C31G, A32C
B4: Ic_S4_P4E.1_K4.1_C4.1_H4.1_A4.1_[T5C]_[A6T]_[T7A]_F4.1_[A9C]_T4.1 (ssRNA)
RNA: B1 RNA with C31U, A32C
B5: Ic_S4_P4E.1_K4.1_C4.1_H4.1_A4.1_[T5C]_F4.1_[T8A]_[A9G]_T4.1 (ssRNA)
RNA: B1 RNA with U29A, A30U, C31A, A32G
B6: Ic_S4_P4E.1_K4.1_C4.1_H4.1_A4.1_[T5C]_[T7G]_F4.1_[T8C]_T4.1 (ssRNA)
RNA: B1 RNA with U29A, A30G
B7: Ic_S4_P4E.1_K4.1_C4.1_H4.1_A4.1_[T5C]_[A6T]_[T7A]_F4.1_[T8A]_[A9C]_T4.1 (ssRNA)
RNA: B1 RNA with C31A, A32C
B8: Ic_S4_P4E.1_K4.1_C4.1_H4.1_A4.1_[T5C]_[A6T]_[T7C]_F4.1_[T8C]_[A9C]_T4.1 (ssRNA)
RNA: B1 RNA with A30C, A32C
B9: Ic_S4_P4E.1_K4.1_C4.1_H4.1_A4.1_[T5C]_[A6T]_[T7A]_F4.1_[T8A]_T4.1 (ssRNA)
RNA: B1 RNA with C31A
B10: Ic_S4_P4E.1_K4.1_C4.1_H4.1_A4.1_[T5C]_[A6T]_[T7G]_F4.1_[T8C]_[A9G]_T4.1 (ssRNA)
RNA: B1 RNA with A30G, A32G
B11: Ic_S4_P4E.1_K4.1_C4.1_H4.1_A4.1_[T5C]_[T7G]_F4.1_[A9C]_T4.1 (ssRNA)
RNA: B1 RNA with U29A, A30G, C31U, A32C
B12: Ic_S4_P4E.1_K4.1_C4.1_H4.1_A4.1_[T5C]_[A6T]_[T7G]_F4.1_[T8C]_T4.1 (ssRNA)
RNA: B1 RNA with A30G
B13: Ic_S4_P4E.1_K4.1_C4.1_H4.1_A4.1_[T5C]_F4.1_[T8A]_T4.1 (ssRNA)
RNA: B1 RNA with U29A, A30U, C31A
B14: Ic_S4_P4E.1_K4.1_C4.1_H4.1_A4.1_[T5C]_F4.1_[T8C]_[A9T]_T4.1 (ssRNA)
RNA: B1 RNA with U29A, A30U, A32U
B15: Ic_S4_P4E.1_K4.1_C4.1_H4.1_A4.1_[T5C]_[A6T]_F4.1_[T8A]_[A9C]_T4.1 (ssRNA)
RNA: B1 RNA with A30U, C31A, A32C
B16: Ic_S4_P4E.1_K4.1_C4.1_H4.1_A4.1_[T5A]_[A6C]_[T7G]_F4.1_[T8C]_[A9T]_T4.1 (ssRNA)
RNA: B1 RNA with C28A, U29C, A30G, A32U
B17: Ic_S4_P4E.1_K4.1_C4.1_H4.1_A4.1_[T5C]_[T7A]_F4.1_[T8A]_T4.1 (ssRNA)
RNA: B1 RNA with U29A, C31A
B18: Ic_S4_P4E.1_K4.1_C4.1_H4.1_A4.1_[T5C]_[A6T]_[T7A]_F4.1_[T8C]_[A9T]_T4.1 (ssRNA)
RNA: B1 RNA with A32U
B19: Ic_S4_P4E.1_K4.1_C4.1_H4.1_A4.1_[T5A]_[A6C]_[T7G]_F4.1_[T8G]_[A9C]_T4.1 (ssRNA)
RNA: B1 RNA with C28A, U29C, A30G, C31G, A32C
B20: Ic_S4_P4E.1_K4.1_C4.1_H4.1_A4.1_[T5C]_[A6T]_F4.1_[A9C]_T4.1 (ssRNA)
RNA: B1 RNA with A30U, C31U, A32C
B21: Ic_S4_P4E.1_K4.1_C4.1_H4.1_A4.1_[T5C]_[T7C]_F4.1_[T8A]_[A9G]_T4.1 (ssRNA)
RNA: B1 RNA with U29A, A30C, C31A, A32G
B22: Ic_S4_P4E.1_K4.1_C4.1_H4.1_A4.1_[T5C]_[A6T]_[T7C]_F4.1_[T8A]_T4.1 (ssRNA)
RNA: B1 RNA with A30C, C31A
B23: Ic_S4_P4E.1_K4.1_C4.1_H4.1_A4.1_[T5C]_[T7A]_F4.1_[T8C]_[A9C]_T4.1 (ssRNA)
RNA: B1 RNA with U29A, A32C
B24: Ic_S4_P4E.1_K4.1_C4.1_H4.1_A4.1_[T5C]_F4.1_[T8A]_[A9T]_T4.1 (ssRNA)
RNA: B1 RNA with U29A, A30U, C31A, A32U
B25: Ic_S4_P4E.1_K4.1_C4.1_H4.1_A4.1_[T5C]_[A6T]_[T7A]_F4.1_[T8C]_[A9G]_T4.1 (ssRNA)
RNA: B1 RNA with A32G
B26: Ic_S4_P4E.1_K4.1_C4.1_H4.1_A4.1_[T5C]_[A6T]_[T7C]_F4.1_[T8G]_[A9T]_T4.1 (ssRNA)
RNA: B1 RNA with A30C, C31G, A32U
B27: Ic_S4_P4E.1_K4.1_C4.1_H4.1_A4.1_[T5C]_[T7A]_F4.1_[A9C]_T4.1 (ssRNA)
RNA: B1 RNA with U29A, C31U, A32C
B28: Ic_S1_P4E.1_K4.1_C4.1_H4.1_A4.1_[A6G]_F4.1_[T8C]_T4.1 (ssRNA)
RNA: UCUCUUUGUAUGUCAUCUCUU
B29: Ic_S1_P4E.1_K4.1_C4.1_H4.1_A4.1_[T5C]_F4.1_[T8A]_T4.1 (ssRNA)
RNA: UCUCUUUGUACAUAAUCUCUU

molecular target: T1, PUF4 RNA-binding domain (Saccharomyces cerevisiae, UniProt P25339 537-888); assay: Mg; RNA-MaP; 20 mM Na-HEPES pH 7.4, 30 mM KOAc, 0.75 mM MgCl2, 0.1% Tween-20, 5% glycerol, 0.1 mg/mL BSA, 2 mM DTT; 25 C; 0.0125-409.6 nM protein; conditions: tags: N-His6-TEV cleaved; C-SNAP kept, Cy3B-labelled; label: tethered on chip by stalled RNA polymerase
T1 sequence: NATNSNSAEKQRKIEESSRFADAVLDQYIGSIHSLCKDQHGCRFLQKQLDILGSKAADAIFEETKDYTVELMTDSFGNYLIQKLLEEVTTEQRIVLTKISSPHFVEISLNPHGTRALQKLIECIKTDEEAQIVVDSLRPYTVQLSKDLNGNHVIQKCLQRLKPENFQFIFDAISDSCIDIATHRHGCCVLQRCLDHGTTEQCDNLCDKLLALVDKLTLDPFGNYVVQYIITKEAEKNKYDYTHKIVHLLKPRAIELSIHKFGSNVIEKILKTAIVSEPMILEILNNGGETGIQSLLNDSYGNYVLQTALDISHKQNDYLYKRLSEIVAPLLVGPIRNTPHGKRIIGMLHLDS

For B1, which Kd is on record?
Its Kd is 279 nM.

Which Kd does the source give for B2 here?
Its Kd is 16.9 nM.

For B3, which Kd is on record?
Its Kd is 14.3 nM.

How did the Kd turn out when B4 was run?
The Kd was 15.8 nM.

With B5 as the binder, how does the Kd read?
Its Kd is 11 nM.

How did the Kd turn out when B6 was run?
Its Kd is 69.5 nM.

Which Kd does the source give for B7 here?
Its Kd is 404 nM.

For B8, which Kd is on record?
The Kd was 394 nM.

How did the Kd turn out when B9 was run?
The Kd was 21.7 nM.

Which Kd does the source give for B10 here?
Its Kd is 916 nM.

With B11 as the binder, how does the Kd read?
The Kd was 22.9 nM.

How did the Kd turn out when B12 was run?
Its Kd is 786 nM.

B13 was tested. Which Kd did it give?
The Kd was 2.32 nM.

Which Kd does the source give for B14 here?
Its Kd is 11.1 nM.

How did the Kd turn out when B15 was run?
The Kd was 108 nM.

For B16, which Kd is on record?
The Kd was 205 nM.

Which Kd does the source give for B17 here?
Its Kd is 13.8 nM.

With B18 as the binder, how does the Kd read?
Its Kd is 58.3 nM.

For B19, which Kd is on record?
The Kd was > 2300 nM.

B20 was tested. Which Kd did it give?
The Kd was 13.1 nM.

For B21, which Kd is on record?
The Kd was 270 nM.

B22 was tested. Which Kd did it give?
Its Kd is 96.2 nM.

For B23, which Kd is on record?
Its Kd is 99.9 nM.

With B24 as the binder, how does the Kd read?
Its Kd is 1.55 nM.

For B25, which Kd is on record?
Its Kd is 563 nM.

B26 was tested. Which Kd did it give?
Its Kd is 138 nM.

B27 was tested. Which Kd did it give?
Its Kd is 22.1 nM.

For B28, which Kd is on record?
The Kd was 384 nM.

For B29, which Kd is on record?
The Kd was 6.09 nM.
